Biological target: EGFR (Homo sapiens, UniProt P00533)
Assay: 125I-EGF radioligand saturation binding on human bone marrow mesenchymal progenitor cells

Kd: 0.0349 nM
B1: EGF (protein)
chain: NSYPGCPSSYDGYCLNGGVCMHIESLDSYTCNCVIGYSGDRCQTRDLRWWELR
modifications: 125I-labeled EGF

Source: publication PMC3534030 (2012)
